The target in assay [1] is human noradrenaline transporter (hNET) (human) (UniProt P23975). In words: cell-based or functional assay.
Assay [2] has the same target.

human noradrenaline transporter (hNET) (human), sequence (P23975 whole entry): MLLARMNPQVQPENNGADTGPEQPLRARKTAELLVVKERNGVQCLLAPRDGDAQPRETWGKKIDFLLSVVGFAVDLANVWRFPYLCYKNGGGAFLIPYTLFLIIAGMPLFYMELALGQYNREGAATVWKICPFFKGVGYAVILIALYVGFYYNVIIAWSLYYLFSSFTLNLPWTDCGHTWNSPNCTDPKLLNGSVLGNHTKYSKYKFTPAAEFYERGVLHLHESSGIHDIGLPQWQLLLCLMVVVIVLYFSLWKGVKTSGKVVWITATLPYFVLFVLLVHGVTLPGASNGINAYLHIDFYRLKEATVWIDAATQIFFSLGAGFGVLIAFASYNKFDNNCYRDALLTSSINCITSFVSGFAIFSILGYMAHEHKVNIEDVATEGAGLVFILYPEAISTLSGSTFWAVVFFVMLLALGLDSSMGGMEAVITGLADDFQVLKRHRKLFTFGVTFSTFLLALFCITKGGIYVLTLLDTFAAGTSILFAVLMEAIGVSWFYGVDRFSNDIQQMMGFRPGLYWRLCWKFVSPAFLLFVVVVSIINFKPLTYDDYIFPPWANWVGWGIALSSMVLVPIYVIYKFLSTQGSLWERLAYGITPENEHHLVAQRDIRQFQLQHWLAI

In assay [1], χ-MrIA (SEQ ID NO. 1) (peptide) registered an Ay log IC50 for inhibition of 3H-NA through hNET of -6.3 log M.

Take “χ-MrIA (SEQ ID NO. 1) (peptide; other documents disagree on this pair)”: the Ay log IC50 for displacement of 3H-nisoxetine from hNET in assay [2] was -5.14 log M.

The values above are taken from US20060142201A1.
